Assay results from EP4722254A1.

Molecular target: Recombinant Human-FGFR2-His protein (human) (UniProt P21802)
Test: ELISA, Human-FGFR2-His coated, anti-human Fc-HRP detection

Chain of Recombinant Human-FGFR2-His protein (human) (P21802 other isoform, or with tags, fused parts or gaps limits assumed): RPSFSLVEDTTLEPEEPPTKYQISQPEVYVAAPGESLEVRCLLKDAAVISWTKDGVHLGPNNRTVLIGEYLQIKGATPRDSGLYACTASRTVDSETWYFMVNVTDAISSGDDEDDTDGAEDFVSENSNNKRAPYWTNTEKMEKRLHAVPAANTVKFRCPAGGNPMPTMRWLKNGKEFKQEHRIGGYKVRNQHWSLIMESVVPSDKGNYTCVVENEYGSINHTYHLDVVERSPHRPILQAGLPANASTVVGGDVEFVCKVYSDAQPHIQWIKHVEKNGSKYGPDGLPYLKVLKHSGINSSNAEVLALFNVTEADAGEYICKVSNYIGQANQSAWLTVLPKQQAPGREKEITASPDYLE

EC50: 0.624 nM
B1: anti-FGFR2/PD-1 bispecific antibody c (bispecific antibody, part only; not given: anti-PD-1 constant regions, part only)
heavy, part: EVKLVESGGGLVQPGGSLRLSCAASGFAFSSYDMSWVRQAPGKRLEWVATISGGGRYTYYPDTVKGRFTISRDNAKNSHYLQMNSLRAEDTAVYFCASPYGGYFDVWGQGTLVTVSSGGGGSGGGGSGGGGSQVQLVQSGAEVKKPGSSVKVSCKASGYTFTSYWMHWVRQAPGQGLEWMGAIYPGNSDTDYSGKFKGRVTITADESTSTAYMELSSLRSEDTAVYYCSKFDYWGQGTLVTVSSGGGGSGGGGSGGGGSGGGGSEIVLTQSPATLSLSPGERATLSCRASSSVNYMYWYQQKPGQAPRPWIYLTSNRATGVPARFSGSGSGTDYTLTISSLEPEDFAVYYCQQWSSNPYTFGQGTKLEIKRTV
light, part: EIVLTQSPATLSLSPGERATLSCRASQSISNFLHWYQQKPGQAPRLLIKYASQSISGIPARFSGSGSGTDFTLTISSLEPEDFAVYFCQQSNSWPHTFGQGTKVEIK
